For assay [1], the target named is SARS-CoV-2 HexaPro Spike protein for cryoEM analysis (SARS-CoV-2 (Wuhan-Hu-1), UniProt P0DTC2, stabilised). Nature of the assay: cryo-EM structure.
The target in assay [2] is yeast-displayed unmutated SARS-CoV-2 RBD (Wuhan-Hu-1) (SARS-CoV-2, UniProt P0DTC2). Briefly: flow cytometry on cells. (In general: In flow cytometry, cells or beads pass a laser one at a time.)

B1: S2D106 Fab (Fab, V domains shown)
VH: EVQLVQSGAEVKKPGSSVKVSCKASGGPFSSSAISWVRQAPGQGLEWMGGIIPMVGTANYAQKFQGRVTITADESTSTAYMELSSLRSEDTAVYYCARDSRYCSGGSCYSVWFDPWGQGTLVTVSS
VL: not shown
Turning to B1, the binding result in assay [1] is “binds”.

B2: S2H97 Fab (Fab, V domains shown)
VH: QVRLVQSGAEVKKSGESLKISCKGSGYSFTSYWIGWVRQMPGKGLEWMGIIYPGDSDTRYSPSFQGQVTISADKSISTVYLQWSSLKASDTAMYYCARQWSHYTYDYYYWGQGTLVTISS
VL: QSVLTQPASVSGSPGQSITISCTGISSDVGGYNSVSWYQQHPGKAPKLMIYDVTNRPSGVSNRFSGSKSGNTASLTISGLQAEDEADYYCSSYTSSSTPPYVFGTGTKVSVL
In the case of B2, the binding result in assay [1] is “binds”.

B3: S2H14 IgG1 (LS) (antibody, V domains shown)
VH: not shown
VL: NFMLTQPHSVSESPGKTVTISCTRSSGSIASNYVQWYQQRPGSSPTTVIYEDNQRPSGVPDRFSGSIDSSSNSASLTISGLKTEDEADYYCQSYDSSNQVFGGGTKLTVL
Regarding B3, the binding result in assay [2] was “binds”.

The record behind these values is article PMC8043444 (bioRxiv, 2021).
